From patent publication US11505811B2, “Method for the preparation of 2,4-dihydroxybutyrate” (ADISSEO FRANCE S.A.S., priority 2012, dated 2022)
Numbering of substitutions follows the chain as printed. Names and notes keep the numbering of the source.

B1: Q85N: L. lactis lactate dehydrogenase A, Ll-LdhA, mutant Q85N, SEQ ID No. 30 (protein, listed as Lactococcus lactis)
chain: MADKQRKKVILVGDGAVGSSYAFALVNQGIAQELGIVDLFKEKTQGDAEDLSHALAFTSPKKIYSADYSDASDADLVVLTSGAPNKPGETRLDLVEKNLRITKDVVTKIVASGFKGIFLVAANPVDILTYATWKFSGFPKNRVVGSGTSLDTARFRQALAEKVDVDARSIHAYIMGEHGDSEFAVWSHANVAGVKLEQWFQENDYLNEAEIVELFESVRDAAYSIIAKKGATFYGVAVALARITKAILDDEHAVLPVSVFQDGQYGVSDCYLGQPAVVGAEGVVNPIHIPLNDAEMQKMEASGAQLKAIIDEAFAKEEFASAVKN
B2: Ll-Ldh: (L)-lactate dehydrogenase of Lactococcus lactis, SEQ ID NO: 6 (protein, listed as Lactococcus lactis)
chain: B1 chain with N85Q
B3: Gs-Ldh: (L)-lactate dehydrogenase of Geobacillus stearothermophilus, SEQ ID NO: 10 (protein, listed as Geobacillus sterarothermophillus)
chain: MKNNGGARVVVIGAGFVGASYVFALMNQGIADEIVLIDANESKAIGDAMDFNHGKVFAPKPVDIWHGDYDDCRDADLVVICAGANQKPGETRLDLVDKNIAIFRSIVESVMASGFQGLFLVATNPVDILTYATWKFSGLPHERVIGSGTILDTARFRFLLGEYFSVAPQNVHAYIIGEHGDTELPVWSQAYIGVMPIRKLVESKGEEAQKDLERIFVNVRDAAYQIIEKKGATYYGIAMGLARVTRAILHNENAILTVSAYLDGLYGERDVYIGVPAVINRNGIREVIEIELNDDEKNRFHHSAATLKSVLARAFTR
B4: Bs-Ldh: (L)-lactate dehydrogenase of Bacillus subtilis, SEQ ID NO: 8 (protein, listed as Bacillus subtilis)
chain: MMNKHVNKVALIGAGFVGSSYAFALINQGITDELVVIDVNKEKAMGDVMDLNHGKAFAPQPVKTSYGTYEDCKDADIVCICAGANQKPGETRLELVEKNLKIFKGIVSEVMASGFDGIFLVATNPVDILTYATWKFSGLPKERVIGSGTTLDSARFRFMLSEYFGAAPQNVHAHIIGEHGDTELPVWSHANVGGVPVSELVEKNDAYKQEELDQIVDDVKNAAYHIIEKKGATYYGVAMSLARITKAILHNENSILTVSTYLDGQYGADDVYIGVPAVVNRGGIAGITELNLNEKEKEQFLHSAGVLKNILKPHFAEQKVN
B5: Ec-LdhA: (D)-lactate dehydrogenase from Escherichia coli, SEQ ID NO: 4 (protein, listed as Escherichia coli)
chain: MKLAVYSTKQYDKKYLQQVNESFGFELEFFDFLLTEKTAKTANGCEAVCIFVNDDGSRPVLEELKKHGVKYIALRCAGFNNVDLDAAKELGLKVVRVPAYDPEAVAEHAIGMMMTLNRRIHRAYQRTRDANFSLEGLTGFTMYGKTAGVIGTGKIGVAMLRILKGFGMRLLAFDPYPSAAALELGVEYVDLPTLFSESDVISLHCPLTPENYHLLNEAAFEQMKNGVMIVNTSRGALIDSQAAIEALKNQKIGSLGMDVYENERDLFFEDKSNDVIQDDVFRRLSACHNVLFTGHQAFLTAEALTSISQTTLQNLSNLEKGETCPNELV
B6: Ec-Mdh: (L)-malate dehydrogenase from Escherichia coli, SEQ ID NO: 2 (protein, listed as Escherichia coli)
chain: MKVAVLGAAGGIGQALALLLKTQLPSGSELSLYDIAPVTPGVAVDLSHIPTAVKIKGFSGEDATPALEGADVVLISAGVARKPGMDRSDLFNVNAGIVKNLVQQVAKTCPKACIGIITNPVNTTVAIAAEVLKKAGVYDKNKLFGVTTLDIIRSNTFVAELKGKQPGEVEVPVIGGHSGVTILPLLSQVPGVSFTEQEVADLTKRIQNAGTEVVEAKAGGGSATLSMGQAAARFGLSLVRALQGEQGVVECAYVEGDGQYARFFSQPLLLGKNGVEERKSIGTLSAFEQNALEGMLDTLKKDIALGEEFVNK
B7: R81A: E. coli malate dehydrogenase mutant R81A, SEQ ID No. 102 (protein, listed as Escherichia coli)
chain: MDHRAMKVAVLGAAGGIGQALALLLKTQLPSGSELSLYDIAPVTPGVAVDLSHIPTAVKIKGFSGEDATPALEGADVVLISAGVAAKPGMDRSDLFNVNAGIVKNLVQQVAKTCPKACIGIITNPVNTTVAIAAEVLKKAGVYDKNKLFGVTTLDIIRSNTFVAELKGKQPGEVEVPVIGGHSGVTILPLLSQVPGVSFTEQEVADLTKRIQNAGTEVVEAKAGGGSATLSMGQAAARFGLSLVRALQGEQGVVECAYVEGDGQYARFFSQPLLLGKNGVEERKSIGTLSAFEQNALEGMLDTLKKDIALGEEFVNK
B8: R81A M85Q: E. coli malate dehydrogenase mutant, SEQ ID No. 104 (protein, listed as Escherichia coli)
chain: B6 chain with R81A, M85Q
B9: R81A M85E: E. coli malate dehydrogenase mutant, SEQ ID No. 106 (protein, listed as Escherichia coli)
chain: B6 chain with R81A, M85E
B10: R81A M85Q I12V: E. coli malate dehydrogenase mutant, SEQ ID No. 108 (protein, listed as Escherichia coli)
chain: B6 chain with I12V, R81A, M85Q
B11: R81A M85E I12V: E. coli malate dehydrogenase mutant, SEQ ID No. 110 (protein, listed as Escherichia coli)
chain: B6 chain with I12V, R81A, M85E
B12: R81A G179D: E. coli malate dehydrogenase mutant, SEQ ID No. 112 (protein, listed as Escherichia coli)
chain: B6 chain with R81A, G179D
B13: R81A D86S: E. coli malate dehydrogenase mutant, SEQ ID No. 1114 as printed (protein, UniProt P61889 1-312, looked up, variant R81A D86S)
Malate dehydrogenase: B6 chain with R81A, D86S
B14: R81A 112V: E. coli malate dehydrogenase mutant, SEQ ID No. 115 as printed (protein, listed as Escherichia coli)
chain: B6 chain with I12V, R81A
B15: R81A G179D D86S: E. coli malate dehydrogenase mutant, SEQ ID No. 118 (protein, listed as Escherichia coli)
chain: B6 chain with R81A, D86S, G179D

assay: pyruvate reductase activity, NADH absorption at 340 nm; type: biochemical; conditions: L. lactis Ll-LdhA mutants
Protocol: (§1) Enzymatic assays: The reaction mixture contained 60 mM Hepes (pH 7), 50 mM potassium chloride, 5 mM MgCl2, 0.25 mM NADH, (optionally 5 mM fructose-1,6-bisphosphate) (all products from Sigma), and appropriate amounts of purified malate or lactate dehydrogenase or cell extract. Reactions were started by adding appropriate amounts of 2-oxo-4-hydroxybutyrate (OHB), pyruvate, or oxaloacetate (OAA). Enzymatic assays were carried out at 37° C. in 96-well flat bottomed microtiter plates in a final volume of 250 μL. The reactions were followed by the characteristic absorption of NADH at 340 nm (εNADH=6.22 mM^−1 cm^−1) in a microplate reader (BioRad 680XR).

In the case of B1, the “Max. specific activity, Pyruvate” value is reported as 184 µmol/mg/min.

same assay, conditions: natural substrate of Ldh: pyruvate; purified enzyme, 37° C., pH 7

Point of comparison: B3, “Max. specific activity, natural substrate” value 87.7 µmol/mg/min. Against it:
- B2 — higher, 184 µmol/mg/min
- B4 — higher, 170 µmol/mg/min
- B5 — higher, 265 µmol/mg/min

assay: oxaloacetate reductase activity, NADH absorption at 340 nm; type: biochemical; conditions: E. coli Mdh mutants; measured at 0.5 mM oxaloacetate
Protocol: as §1

Point of comparison: B14, “Max. specific activity, OAA” value 0.5 µmol/mg/min. Against it:
- B6 — higher, 95 µmol/mg/min
- B7 — higher, 1.16 µmol/mg/min
- B8 — the same, 0.5 µmol/mg/min
- B9 — higher, 1 µmol/mg/min
- B10 — higher, 1.84 µmol/mg/min
- B11 — higher, 2.2 µmol/mg/min
- B12 — lower, 0.37 µmol/mg/min
- B13 — higher, 0.67 µmol/mg/min
- B15 — higher, 0.54 µmol/mg/min

same assay, conditions: E. coli Mdh mutants; ns = not saturated up to 0.5 mM oxaloacetate

In the case of B15, the “Km, OAA” value is reported as “ns”.

same assay, conditions: natural substrate of Mdh: oxaloacetate; purified enzyme, 37° C., pH 7

In the case of B6, the “Max. specific activity, natural substrate” value is reported as 95.6 µmol/mg/min.

assay: OHB reductase activity, NADH absorption at 340 nm; type: biochemical; conditions: not given
Protocol: as §1
OHB was synthesized by incubating 125 mM homoserine with snake venom (L)-amino acid oxidase (1.25 U/mL, Sigma) and catalase (4400 U/mL, Sigma) in 100 mM Tris buffer at pH 7.8 for 90 min at 37° C. Subsequently, the reaction mixture was purified on an Amicon™ Ultra centrifugal filter with a cut-off of 10 kDa to eliminate the enzymes (method adapted from Wellner & Lichtenberg, 1971).
OHB was quantified by mixing 100 μL of the tested solution with 1 mL of a solution containing 1 M sodium arsenate and 1 M boric acid at pH 6.5. The mixture was incubated at room temperature for 30 min and the absorbance at 325 nm was used to quantify OHB. The relation between absorbance and concentration of the ketone was calibrated using pyruvate solutions of known concentrations (method adapted from (Wellner & Lichtenberg, 1971)). The typical OHB yield of the method was 90%.

With B6 the “OHB reductase activity, in words” value was “very minor activity”.

same assay, conditions: E. coli Mdh mutants; measured at 20 mM OHB

Point of comparison: B7, “Max. specific activity, OHB” value 1.8 µmol/mg/min. Against it:
- B6 — lower, 0.01 µmol/mg/min
- B8 — higher, 4.99 µmol/mg/min
- B9 — higher, 3 µmol/mg/min
- B10 — higher, 18.9 µmol/mg/min
- B11 — higher, 12.54 µmol/mg/min
- B12 — higher, 4.16 µmol/mg/min
- B13 — higher, 14.6 µmol/mg/min
- B14 — higher, 4.9 µmol/mg/min
- B15 — higher, 19 µmol/mg/min

same assay, conditions: E. coli Mdh mutants; ns = not saturated up to 50 mM OHB

In the case of B15, the “Km, OHB” value is reported as “ns”.

same assay, conditions: L. lactis Ll-LdhA mutants

In the case of B1, the “Max. specific activity, OHB” value is reported as 63.9 µmol/mg/min.

same assay, conditions: when not saturated, activity estimated at 20 mM substrate

Point of comparison: B5, “Max. specific activity, OHB” value 0.56 µmol/mg/min. Against it:
- B6 — lower, 0.01 µmol/mg/min
- B2 — higher, 18 µmol/mg/min
- B3 — higher, 66.8 µmol/mg/min
- B4 — higher, 15.7 µmol/mg/min
